Drawing on the Immune Epitope Database (IEDB), this text covers Kd for 5 sequences.

One assay addresses HLA-B*58:01. In words: IEDB peptide-MHC binding, purified MHC/direct/fluorescence; filed as Kd, often an IC50 or EC50 that approximates it; ≥ and ≤ were set here for values at or beyond the usual limits of such assays.
For assay [1], the target named is HLA-B*15:01. Described as above. To be noted: source organism: Mycobacterium tuberculosis.
Another assay concerns the target HLA-A*31:01. Described as above.
For the next assay, the target named is HLA-A*11:01. The assay is described as above. The settings on record: source organism: Mycobacterium tuberculosis.
Assay [2] has as its target HLA-A*01:01. The description is as above.
For assay [3], the target named is HLA-B*39:01. Described as above.
The target of a further assay is HLA-B*44:02. The assay is described as above.
In assay [4] the target is HLA-B*46:01. The assay is described as above. To be noted: source organism: Mycobacterium tuberculosis.
A further assay concerns the target HLA-A*03:01. The assay is described as above.
Assay [5] deals with HLA-B*57:01. The assay is described as above.
The target of a further assay is HLA-B*07:02. Described as above.
For the next assay, the target named is HLA-B*27:05. The assay is described as above.
A further assay addresses HLA-B*40:01. The assay is described as above. The settings on record: source organism: Mycobacterium tuberculosis.
In assay [6] the target is HLA-A*69:01. Described as above. To be noted: source organism: Mycobacterium tuberculosis.
Assay [7] has as its target HLA-A*02:01. The assay is described as above. The settings on record: source organism: Mycobacterium tuberculosis.
For a further assay, the target named is HLA-B*48:01. The description is as above. To be noted: source organism: Mycobacterium tuberculosis.
Assay [8] deals with HLA-B*51:01. Described as above. The settings on record: source organism: Mycobacterium tuberculosis.
The target of assay [9] is HLA-A*26:01. Described as above. To be noted: source organism: Mycobacterium tuberculosis str. Haarlem.
Assay [10] addresses HLA-B*18:01. The assay is described as above. The settings on record: source organism: Mycobacterium tuberculosis.
The next assay addresses HLA-B*15:09. The description is as above. To be noted: source organism: Mycobacterium tuberculosis str. Haarlem.
In a further assay the target is HLA-B*15:17. The assay is described as above. To be noted: source organism: Mycobacterium tuberculosis.
For assay [11], the target named is HLA-B*15:01. In words: IEDB peptide-MHC binding, purified MHC/competitive/fluorescence; filed as Kd, often an IC50 or EC50 that approximates it; ≥ and ≤ were set here for values at or beyond the usual limits of such assays. The settings on record: source organism: Mycobacterium tuberculosis variant bovis BCG str. Pasteur 1173P2.
The target of another assay is HLA-B*15:42. The assay is described as above. To be noted: source organism: Mycobacterium tuberculosis variant bovis BCG str. Pasteur 1173P2.
The target of assay [12] is HLA-A*01:01. Described as above. The settings on record: source organism: Mycobacterium tuberculosis variant bovis BCG str. Pasteur 1173P2.
Assay [13] has as its target HLA-B*39:01. The assay is described as above.
The target of the next assay is HLA-B*45:06. Described as above. The settings on record: source organism: Mycobacterium tuberculosis variant bovis BCG str. Pasteur 1173P2.
The target in another assay is HLA-B*83:01. The assay is described as above. The settings on record: source organism: Mycobacterium tuberculosis variant bovis BCG str. Pasteur 1173P2.
In the next assay the target is HLA-A*02:03. Kind of assay: IEDB peptide-MHC binding, purified MHC/direct/fluorescence; filed as Kd, often an IC50 or EC50 that approximates it; ≥ and ≤ were set here for values at or beyond the usual limits of such assays. The settings on record: source organism: Zaire ebolavirus.
The target of another assay is HLA-A*68:02. The assay is described as above. The settings on record: source organism: Zaire ebolavirus.
Another assay concerns the target HLA-B*08:01. The assay is described as above. To be noted: source organism: Ebola virus - Eckron (Zaire, 1976).
In another assay the target is HLA-A*02:11. The assay is described as above. The settings on record: source organism: Zaire ebolavirus.
The next assay concerns the target HLA-A*02:19. Described as above. The settings on record: source organism: Zaire ebolavirus.
A further assay deals with HLA-A*02:16. Described as above. The settings on record: source organism: Zaire ebolavirus.
The target in a further assay is HLA-A*02:12. The description is as above. To be noted: source organism: Zaire ebolavirus.
For the next assay, the target named is HLA-A*24:03. The description is as above. The settings on record: source organism: Zaire ebolavirus.
The target of assay [14] is HLA-A*69:01. Kind of assay: IEDB peptide-MHC binding, purified MHC/competitive/fluorescence; filed as Kd, often an IC50 or EC50 that approximates it; ≥ and ≤ were set here for values at or beyond the usual limits of such assays. To be noted: source organism: Zaire ebolavirus.
Assay [15] deals with HLA-B*46:01. Described as above. To be noted: source organism: Zaire ebolavirus.
Assay [16] deals with HLA-A*02:01. Described as above. To be noted: source organism: Zaire ebolavirus.
Assay [17] concerns the target HLA-B*51:01. The assay is described as above. To be noted: source organism: Zaire ebolavirus.
The target of assay [18] is HLA-A*26:01. The description is as above. The settings on record: source organism: Zaire ebolavirus.
Assay [19] has as its target HLA-B*18:01. Described as above. To be noted: source organism: Zaire ebolavirus.
A further assay deals with HLA-B*27:03. The description is as above. The settings on record: source organism: Zaire ebolavirus.
The target of assay [20] is HLA-B*57:01. The description is as above. To be noted: source organism: Zaire ebolavirus.
The mark [21] stands for this setting: source organism: Mycobacterium tuberculosis.
[22] abbreviates: source organism: Mammarenavirus lassaense.
[23] abbreviates: source organism: Zaire ebolavirus.

The Kd is a measure of binding affinity in units of concentration. A high value points to a looser complex.

FHVNPAFVL: the Kd with HLA-B*58:01 (setting [21]) was at least 20 µM; with HLA-B*15:01 [1], at least 20 µM; in the assay with HLA-A*31:01 (setting [21]), at least 20 µM; with HLA-A*11:01, at least 20 µM; with HLA-A*01:01 [2] (setting [21]), at least 20 µM; in the assay with HLA-B*39:01 [3] (setting [21]), 0.014 µM. Besides, the Kd with HLA-B*44:02 (setting [21]), with HLA-B*46:01 [4], with HLA-A*03:01 (setting [21]), in the assay with HLA-B*57:01 [5] (setting [21]), with HLA-B*07:02 (setting [21]) and with HLA-B*27:05 (setting [21]) was at least 20 µM in each case.
As for MRMGDLHLL, the Kd with HLA-B*39:01 [3] (source organism: Influenza A virus (A/swine/Italy/1850/1977(H3N2))) was found to be 0.0396 µM.
Take NQFGTMPSL: the dissociation constant Kd with HLA-B*58:01 (setting [22]) was at least 20 µM; with HLA-A*31:01 (setting [22]), at least 20 µM; with HLA-A*01:01 [2] (setting [22]), at least 20 µM; in the assay with HLA-B*39:01 [3] (setting [22]), 0.0011 µM; with HLA-B*44:02 (setting [22]), at least 20 µM; with HLA-A*03:01 (setting [22]) it was at least 20 µM. Also, the Kd with HLA-B*57:01 [5] (setting [22]), with HLA-B*07:02 (setting [22]) and in the assay with HLA-B*27:05 (setting [22]) was at least 20 µM each time.
As to RPRCAYLPF, the Kd with HLA-B*58:01 (setting [21]) is at least 20 µM; with HLA-A*31:01 (setting [21]), at least 20 µM; in the assay with HLA-A*11:01, at least 20 µM; with HLA-B*40:01, at least 20 µM; with HLA-A*69:01 [6] it was at least 20 µM; with HLA-B*46:01 [4] it was 5.59 µM. Besides, the Kd is at least 20 µM with HLA-A*02:01 [7]; at least 20 µM in the assay with HLA-B*48:01; at least 20 µM in the assay with HLA-B*51:01 [8]; 2.6 µM in the assay with HLA-A*26:01 [9]; 5.59 µM with HLA-B*18:01 [10]; at least 20 µM with HLA-A*03:01 (setting [21]). For the same sequence, the dissociation constant (Kd) in the assay with HLA-B*15:09 is at least 20 µM; with HLA-B*15:17, 0.197 µM; in the assay with HLA-B*57:01 [5] (setting [21]) it was at least 20 µM; with HLA-B*27:05 (setting [21]), at least 20 µM; with HLA-B*15:01 [11], 2.17 µM; with HLA-B*15:42 it was at least 5 µM. In addition, the equilibrium dissociation constant (Kd) with HLA-A*01:01 [12] was at least 20 µM; with HLA-B*39:01 [13] (source organism: Mycobacterium tuberculosis variant bovis BCG str. Pasteur 1173P2), at least 20 µM; in the assay with HLA-B*45:06, at least 5 µM; with HLA-B*83:01, 0.0317 µM.
With VVRVRRELL, the Kd in the assay with HLA-A*02:03 is at least 20 µM; with HLA-A*68:02, at least 20 µM; with HLA-B*08:01 it was 6 µM; with HLA-A*02:11 it was at least 20 µM; with HLA-A*02:19, at least 20 µM; with HLA-A*02:16, at least 20 µM. For the same sequence, the Kd with HLA-A*03:01 (setting [23]) is at least 20 µM; with HLA-A*02:12 it was at least 20 µM; with HLA-B*07:02 (source organism: Ebola virus - Eckron (Zaire, 1976)), 8 µM; with HLA-A*24:03, at least 20 µM; in the assay with HLA-B*39:01 [13] (setting [23]), at least 20 µM; with HLA-A*69:01 [14], at least 20 µM. Further, the Kd with HLA-B*46:01 [15], with HLA-A*02:01 [16], with HLA-B*51:01 [17], in the assay with HLA-A*26:01 [18], with HLA-B*18:01 [19] and with HLA-B*27:03 was at least 20 µM in each case. The equilibrium dissociation constant (Kd) with HLA-B*57:01 [20] was at least 20 µM.
